From paper PMC4523205
Like-named read-outs stand apart in the source and are kept apart here. Each block holds one substance with its values, some of them ahead of it.

Assays:
[1] = biological target: rhesus macaque FcγR3A-1 (rhesus macaque) (UniProt A3RFZ7); test: SPR; mAb binding to recombinant purified Fc receptors; who was immobilised is not stated
[2] = biological target: rhesus macaque FcγR3A-3 (rhesus macaque) (UniProt A3RFZ7); test: as above
[3] = biological target: 7B2 Fab; test: SPR; conditions: for response: sensorgram read at ~140 seconds after starting injection of 7B2 Fab, parent: est. 1400, read off a plot
[4] = biological target: rhesus macaque FcγR3A-1 (rhesus macaque) (UniProt A3RFZ7); test: SPR
[5] = biological target: gp41_(596-606) peptide with Cys604 substituted by Ala, N-terminal biotin (HIV-1) (UniProt P04578); test: SPR; BIAcore 4000; biotinylated 11mer and its alanine-substituted variants on a streptavidin chip; 7B2 (Fab by the legend) at 20 μg/ml; responses of the irrelevant antibody Synagis subtracted
[6] = biological target: Env of HIV-1 BaL.B, on virions (HIV-1)
[7] = biological target: Env of HIV-1 SF162.B, on virions (HIV-1) (UniProt P19550)
[8] = biological target: Env of SHIV-BaL, on virions (HIV-1 (env of SHIV-BaL))
[9] = biological target: human FcγRI (CD64) (human) (UniProt P12314); test: SPR; mAb binding to recombinant purified Fc receptors; who was immobilised is not stated
Chain of human FcγRI (CD64) (human) (P12314 16-292): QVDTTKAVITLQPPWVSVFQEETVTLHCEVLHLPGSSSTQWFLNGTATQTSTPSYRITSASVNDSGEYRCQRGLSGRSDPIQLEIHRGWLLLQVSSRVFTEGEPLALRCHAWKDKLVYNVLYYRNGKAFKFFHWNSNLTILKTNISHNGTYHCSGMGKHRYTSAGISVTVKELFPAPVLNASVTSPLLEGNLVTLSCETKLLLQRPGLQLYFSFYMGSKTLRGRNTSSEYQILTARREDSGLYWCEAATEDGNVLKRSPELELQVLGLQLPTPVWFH

[10] = biological target: human FcγRIIIa/CD16 (human) (UniProt O75015); test: as above
[11] = binding response at saturation (~140 seconds after starting injection of 7B2 Fab)

Chain of rhesus macaque FcγR3A-3 (rhesus macaque) (A3RFZ7 21-206): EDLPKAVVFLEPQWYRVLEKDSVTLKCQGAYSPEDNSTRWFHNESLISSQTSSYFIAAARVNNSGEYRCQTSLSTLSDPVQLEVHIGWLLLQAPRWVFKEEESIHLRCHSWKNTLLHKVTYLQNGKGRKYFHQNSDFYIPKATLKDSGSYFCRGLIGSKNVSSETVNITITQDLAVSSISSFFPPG
Chain of rhesus macaque FcγR3A-1 (rhesus macaque) (A3RFZ7 21-206): as above

Kd [1]: 50 nM
koff [1]: 0.0094 s⁻¹
kon [1]: 190000 M⁻¹ s⁻¹
Kd [2]: 56 nM
koff [2]: 0.0061 s⁻¹
kon [2]: 110000 M⁻¹ s⁻¹
Substance: A32 IgG1_AAA (antibody)

Substance: gp41_(596-606) peptide, wild type, N-terminal biotin W596A
ratio to parent [3]: 8.65
ratio to parent [3, 11]: 0.83

Substance: gp41_(596-606) peptide, wild type, N-terminal biotin K601A
ratio to parent [3]: 0.59
ratio to parent [3, 11]: 1.24

Substance: gp41_(596-606) peptide, wild type, N-terminal biotin L602A
ratio to parent [3]: 4.65
ratio to parent [3, 11]: 0.38

Substance: gp41_(596-606) peptide, wild type, N-terminal biotin I603A
ratio to parent [3]: 31.7
ratio to parent [3, 11]: 0.32
response [3]: 430 RU

Substance: gp41_(596-606) peptide, wild type, N-terminal biotin T606A
ratio to parent [3]: 1.11
ratio to parent [3, 11]: 0.89

Substance: 7B2 IgG1_AAA
Kd [4]: 92.9 nM

Substance: 7B2 Fab
off-rate relative to the wild-type peptide (fold) [5]: 2.8 fold

Substance: gp41_(596-606) peptide, wild type, N-terminal biotin G597A
ratio to parent [3]: 5.15
ratio to parent [3, 11]: 0.6

Substance: A32 IgG1_AAA
Kd [4]: 46.2 nM

Substance: gp41_(596-606) peptide, wild type, N-terminal biotin G600A
ratio to parent [3]: 0
ratio to parent [3, 11]: 0

Substance: gp41_(596-606) peptide, wild type, N-terminal biotin S599A
ratio to parent [3]: 21.4
ratio to parent [3, 11]: 0.64
response [3]: 880 RU

Substance: gp41_(596-606) peptide, wild type, N-terminal biotin T605A
ratio to parent [3]: 0.79
ratio to parent [3, 11]: 0.99

Substance: 7B2 IgG1_AAA (antibody)
neutralisation of HIV-1 BaL in peripheral blood monocytes differentiated into macrophages, ID50 [6]: 0.05 µg/mL
neutralisation of HIV-1 SF162 in macrophages, IC90 [7]: 0.2 not printed
neutralisation of SHIV-BaL in the TZM-bl assay, IC50 [8]: > 50 µg/mL
Kd [9]: 49 nM
Kd [10]: 1100 nM
Kd [1]: 68.7 nM
Kd [2]: 147 nM

Substance: gp41_(596-606) peptide, wild type, N-terminal biotin C598A
ratio to parent [3]: 25
ratio to parent [3, 11]: 0.16
response [3]: 200 RU
